In US8703452B2, “Extracellular aldonolactonase” (The Regents of the University of California, priority 2010, dated 2014):

Tests used:
[1] = biological target: S. thermophile aldonolactonase 1 (Thermothelomyces thermophilus, UniProt E5LEX3); details: substrate specificity
Protocol: (§1) Aldonolactonase activity was measured as described by Hestrin (21). The reactions were carried out in triplicate in 96-well microtiter plates. Briefly, 100 μL of 100 mM freshly dissolved sugar lactone was immediately mixed with 100 μL of 10 nM aldonolactonase enzyme buffered in 100 mM sodium acetate pH 5.0 for 1 minute at 25° C. The reaction was quenched by adding 40 μL of alkaline hydroxylamine (2.0 M hydroxylamine hydrochloride, 1.5 M sodium hydroxide) for 1 minute. Twenty microliters of 4.0 M hydrochloric acid was then added to acidify the solution and stabilize the sugar hydroxamate. Color was developed by adding 20 μL of 0.5 M ferric chloride (FeCl3) and the absorbance at 540 nm was measured. For all experiments, control measurements were made on control samples where no enzyme was added. The background hydrolysis was subtracted from the total hydrolysis in the presence of enzyme.

[2] = system: S. thermophile Aldonolactonase 2 (Spoth1189286); assay: Standard gluconolactonase assay with recombinant S. thermophile aldonolactonase 2; assay type: biochemical, Sporotrichum thermophile; details: unpurified concentrate, expressed in N. crassa
Protocol: as §1, with “Lactonase activity on gluconolactone was confirmed using the standard gluconolactonase assay (as described in other sections). The protein was not further purified because the affinity purification tag was removed by endogenous proteases in N. crassa. Aldonolactonase” for “Aldonolactonase”, “Hestrin” left out, “Color was developed by adding 20 μL of 0.5 M ferric chloride (FeCl3) and the absorbance at 540 nm was measured.” left out, “enzyme. This typically amounted to less than 10% of the total lactone.” for “enzyme.”

[3] = cited from earlier work
[4] = substrate: O=C1O[C@H](CO)[C@@H](O)[C@H](O)[C@H]1O; assay: purified protein, by the assay type
[5] = substrate: O=C1O[C@H](CO)[C@@H](O[C@@H]2O[C@H](CO)[C@@H](O)[C@H](O)[C@H]2O)[C@H](O)[C@H]1O; assay: purified protein, by the assay type; details: other: steady-state kinetic constants; substrate of S. thermophile aldonolactonase 1; pH 5.0; 25.0 °C
Protocol: (§2) Aldonolactonase activity was measured as described by Hestrin (21). The reactions were carried out in triplicate in 96-well microtiter plates. Briefly, 100 μL of 100 mM freshly dissolved sugar lactone was immediately mixed with 100 μL of 10 nM aldonolactonase enzyme buffered in 100 mM sodium acetate pH 5.0 for 1 minute at 25° C. The reaction was quenched by adding 40 μL of alkaline hydroxylamine (2.0 M hydroxylamine hydrochloride, 1.5 M sodium hydroxide) for 1 minute. Twenty microliters of 4.0 M hydrochloric acid was then added to acidify the solution and stabilize the sugar hydroxamate. Color was developed by adding 20 μL of 0.5 M ferric chloride (FeCl3) and the absorbance at 540 nm was measured. For all experiments, control measurements were made on control samples where no enzyme was added. The background hydrolysis was subtracted from the total hydrolysis in the presence of enzyme. This typically amounted to less than 10% of the total lactone.

[6] = substrate: O=C1O[C@H](CO)[C@@H](O[C@@H]2O[C@H](CO)[C@H](O)[C@H](O)[C@H]2O)[C@H](O)[C@H]1O; assay: purified protein, by the assay type; details: other: steady-state kinetic constants; substrate of S. thermophile aldonolactonase 1; pH 5.0; 25.0 °C
Protocol: as §2

[7] = Aldonolactonase activity of enzyme preparations on glucono-δ-lactone; assay type: biochemical; details: glucono-δ-lactone as substrate, 25° C., pH 5.0
Protocol: as §1, with “enzyme. This typically amounted to less than 10% of the total lactone.” for “enzyme.”

[8] = pH profile of S. thermophile aldonolactonase 1; assay type: biochemical; details: from pH 3.0 to pH 8.0; 10 nM enzyme, 50 mM glucono-δ-lactone, room temperature
Protocol: FIG. 9 depicts the pH profile of S. thermophile aldonolactonase 1. Reactions were conducted at room temperature for 1 minute with 10 nM aldonolactonase, 50 mM glucono-δ-lactone, and 100 mM buffer. Buffers used included sodium citrate, pH 3.0; sodium acetate, pH 4.0; sodium acetate, pH 5.0; sodium succinate, pH 6.0; HEPES, pH 7.0; and Tris, pH 8.0. Error bars represent the standard deviation of three replicate experiments.

[9] = Stability of aldonolactonase activity; assay type: physicochemical
Text: Sporotrichum thermophile is a thermophilic fungus isolated from soil and self-heating compost (3). […] During development of the present disclosure, an enzyme involved in the process of cellulose degradation was isolated from S. thermophile. As disclosed herein, an enzyme containing extracellular aldonolactonase activity was purified, identified, and characterized from the thermophilic ascomycete S. thermophile. The S. thermophile aldonolactonase hydrolyzes hexose δ-lactones over a broad range of pH values. […] (the growth condition for production of the enzyme). The expression profile and kinetic parameters of the S. thermophile aldonolactonase were determined on different substrates. The results disclosed herein provide insight into how S. thermophile utilizes aldonolactonase in nutrient acquisition, especially from hexose δ-lactones and how this enzyme can be utilized for biofuel production.
After 48 hours of growth on complex media containing cellulose, S. thermophile mycelia and residual cellulose were removed from the culture by filtering over 0.2 micron polyethersulfone (PES) filters. The filtered culture broth was then concentrated and buffer exchanged using tangential flow filtration with a 10 kDa molecular weight cut-off (MWCO) PES membrane (Millipore, Billerica, Mass.) into 25 mM 4-(2-hydroxyethyl)-1-piperazineethanesulfonic acid (HEPES) buffer, pH 7.4. […]

[10] = other: steady-state kinetic constants, substrate of S. thermophile aldonolactonase 1, pH 5.0, 25.0 °C

Question: For `O=C1O[C@H](CO)[C@@H](O[C@@H]2O[C@H](CO)[C@@H](O)[C@H](O)[C@H]2O)[C@H](O)[C@H]1O` [D-Cellobiono-δ-lactone], which “hydrolysis by S. thermophile aldonolactonase 1” value (“hydrolysis” below) [1] is on record?
Answer: The value was “completely hydrolyze”.

Question: For `O=C1O[C@H](CO)[C@@H](O[C@@H]2O[C@H](CO)[C@H](O)[C@H](O)[C@H]2O)[C@H](O)[C@H]1O` [D-Lactono-δ-lactone], which “hydrolysis” value [1] is on record?
Answer: The value was “completely hydrolyze”.

Question: With `O=C1O[C@H](CO)[C@@H](O)[C@@H]1O` [arabinolactone] as the molecule, how does the “hydrolysis” value [1] read?
Answer: Its value is “not hydrolyzed”.

Question: For `O=C1O[C@H](CO)[C@@H](O)[C@H](O)[C@H]1O` [D-Glucono-δ-lactone], which “hydrolysis” value [1] is on record?
Answer: Its value is “completely hydrolyze”.

Question: What about the “lactonase activity on gluconolactone” value [2] of the same molecule?
Answer: The value was “confirmed”.

Question: And the “equilibrium constant between glucono-δ-lactone and gluconic acid” value ([3]; favoring gluconic acid)?
Answer: The value was 7.7.

Question: And the half-life ([3]; in water at room temperature and pH 5.0)?
Answer: The half-life was “approximately 1 hour”.

Question: Which “hydrolysis” value [1] does the source give for `O=C1O[C@H](CO)[C@H](O)[C@H]1O` [Xylonolactone] here?
Answer: The value was “not hydrolyzed”.

B1: S. thermophile aldonolactonase 1 (Thermothelomyces thermophilus) (protein)
chain: APVCGGGSASDLLWVTTYPAGEGAQGKLLTLKLDGSKLEVVAESDTCGPYPSWLTQAGDVLYCVDEAWGGDHGTLHSLKINDDHSFTNLSQHETVGGPVSTVIYGKDGLGLAVADYAGGGIDTFNIADPAAIKLIKSLVYPAPTDGLPDPQNSARPHEAILDPTGEFLVFPDLGADQIRVLKVDKETLEYVEKPSYTDFDRGTGPRHGAFFKSGDKTFFYLVGELSNLLQGFSVAYNDDDSLTFTRIHNSTTHGDDKPLPEDTAAAELWIAPGSNFLTLSSRFESSLEYTVANGTKVPSDPLITFSIDKETGALTHVQSAPAGGINPRHFSFNSDGTRVASALQSDGRVVVFERDPSTGKIGKATAEGDVEGMPNFATFKQ
Question: Which kcat/Km ([4]; other: 25° C. and pH 5.0) does the source give for B1 here?
Answer: The kcat/Km was 600000 M⁻¹ s⁻¹.

Question: What about the Km [4, 10] of the same molecule?
Answer: The Km was 20.3 mM.

Question: What about the kcat [4, 10] of the same molecule?
Answer: The kcat was 11700 s⁻¹.

Question: What about the kcat/Km [4, 10] of the same molecule?
Answer: The kcat/Km was 580000 M⁻¹ s⁻¹.

Question: What about the Km [5] of the same molecule?
Answer: Its Km is 21.6 mM.

Question: And the kcat [5]?
Answer: The kcat was 29100 s⁻¹.

Question: What about the kcat/Km [5] of the same molecule?
Answer: The kcat/Km was 1.35e+06 ± 120000 M⁻¹ s⁻¹.

Question: What about the Km [6] of the same molecule?
Answer: Its Km is 5.9 mM.

Question: What about the kcat [6] of the same molecule?
Answer: The kcat was 7400 s⁻¹.

Question: What about the kcat/Km [6] of the same molecule?
Answer: The kcat/Km was 1.25e+06 ± 520000 M⁻¹ s⁻¹.

B2: S. thermophile aldonolactonase 1: extracellular aldonolactonase purified from S. thermophile culture broth, encoded by Spoth11109678 (SEQ ID NO: 1) (protein)
chain: MRTSYGVAFALSAGFRLATAAPVCGGGSASDLLWVTTYPAGEGAQGKLLTLKLDGSKLVVAESDTCGPYPSWLTQAGDVLYCVDEAWGGDHGTLHSLKINDDHSFTNLSQHETVGGPVSTVIYGKDGLGLAVADYAGGGIDTFNIADPAAIKLIKSLVYPAPTDGLPDPQNSARPHEAILDPTGEFLVFPDLGADQIRVLKVDKETLEYVEKPSYTDFDRGTGPRHGAFFKSGDKTFFYLVGELSNLLQGFSVAYNDDDSLTFTRIHNSTTHGDDKPLPEDTAAAELWIAPGSNFLTLSSRFESSLEYTVANGTKVPSDPLITFSIDKETGALTHVQSAPAGGINPRHFSFNSDGTRVASALQSDGRVVVFERDPSTGKIGKATAEGDVEGMPNFATFKQ
modifications: Sporotrichum thermophile; extracellular aldonolactonase 1
Question: For B2, which “activity relative to that reported for lactonases isolated from other filamentous fungi” value [7] is on record?
Answer: Its value is “approximately 20 fold”.

Question: And the change in activity [8]?
Answer: The change in activity was 3 fold.

Question: What about the stability ([9]; 50° C. (growth condition for production of the enzyme)) of the same molecule?
Answer: The stability was “stable for several days”.

Question: And the “storage stability of aldonolactonase activity” value ([9]; stored at −80° C.)?
Answer: The value was “stable for several months”.
